Test results published in the supplement of paper PMC6755084.

B1: minF1; the commonest letter at each place (parent)
chain: GAGACCGCAACTGAAAAGTTGTTATCAGAAATGGATGGGTTGAATTTCTGCACGTAGAAGCAAAAGGC

Variants of: B1
Assay: fraction ligated after 30 min (ligated reads / total reads); higher = more ligase activity
Conditions: with F1*subA RNA substrate (template-directed ligation), 42 °C
Experimental: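 Chip-synthesised pool of minF1 ligase ribozyme variants (single and double substitutions, single to quadruple deletions, bulge and P2 designed variants) was transcribed with T7 and reacted as a pool with excess substrate F1*subA for 30 min at 42 C in 50 mM EPPS pH 8.5, 25 mM MgCl2. Ligated and unligated RNAs were separated by PAGE, barcoded by RT and deep sequenced; fraction ligated = ligated reads / total reads, relative activity = FL / FL of wild-type minF1 (0.76); sequencing FL correlated with PAGE (R2 = 0.98). Sequences are the DNA template of the ribozyme.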

| Variant | fraction ligated |
| --- | --- |
| T23G T36A | 0.0286 |
| T23G T36C | 0.0436 |
| T23G T36G | 0.061 |
| T23A T36A | 0.0114 |
| T23A T36G | 0.0346 |
| T23A T36C | 0.012 |
| T23A T32G | 0.000962 |
| T23A T32C | 0.00262 |
| T23A T32A | 0.00638 |
| T23C A24T | 0.0194 |
| T23C A24G | 0.0315 |
| T23C A24C | 0.0187 |
| T23C T36A | 0.0123 |
| T23C T36G | 0.0318 |
| T23C T36C | 0.00904 |
| T23G A27G | 0.795 |
| T23G A27T | 0.805 |
| T23G A27C | 0.714 |
| T23A A44G | 0.0455 |
| T23A A44C | 0.0208 |
| T23A A44T | 0.0479 |
| A24C G34A | 0.0317 |
| T23G C26T | 0.434 |
| T23G C26G | 0.0528 |

| Variant | fraction ligated |
| --- | --- |
| T23G C26A | 0.123 |
| T23G A31G | 0.82 |
| T23G A31T | 0.826 |
| T23G A31C | 0.783 |
| A24C G28C | 0.0343 |
| A24C G28A | 0.0266 |
| A24C G28T | 0.0617 |
| A24C A43G | 0.00364 |
| A24C A43T | 0.0035 |
| A24C A43C | 0.0036 |
| T23A A31C | 0.181 |
| T23A A31G | 0.264 |
| T23A A31T | 0.325 |
| T23G A43G | 0.0673 |
| T23G A43T | 0.0898 |
| T23G A43C | 0.0643 |
| T23A C26T | 0.0201 |
| T23A C26A | 0.00635 |
| T23A C26G | 0.00512 |
| T23G G28T | 0.803 |
| T23G G28A | 0.798 |
| T23G G28C | 0.8 |
| T23C A35G | 0.0141 |
| T23C A35C | 0.00513 |

| Variant | fraction ligated |
| --- | --- |
| T23C A35T | 0.00507 |
| T23G A24G | 0.00157 |
| T23G A24C | 0.0996 |
| T23G A24T | 0.104 |
| T23A A27C | 0.0462 |
| T23A A27T | 0.488 |
| T23A A27G | 0.234 |
| T23C A30T | 0.221 |
| T23C A30C | 0.21 |
| T23C A30G | 0.391 |
| T23A G42A | 0.0065 |
| T23A G42T | 0.003 |
| T23A G42C | 0.00428 |
| T23C G34C | 0.0023 |
| T23C G34T | 0.00428 |
| T23C G34A | 0.0166 |
| T23C G42C | 0.00249 |
| T23C G42T | 0.00449 |
| T23C G42A | 0.0247 |
| T23A T25C | 0.0136 |
| T23A T25A | 0.00503 |
| T23A T25G | 0.00615 |
| A24C A29C | 0.0282 |
| A24C A29G | 0.0302 |

| Variant | fraction ligated |
| --- | --- |
| A24C A29T | 0.0449 |
| T23C G28A | 0.242 |
| T23C G28C | 0.224 |
| T23C G28T | 0.326 |
| T23G G42T | 0.0401 |
| T23G G42C | 0.00862 |
| T23G G42A | 0.204 |
| T23C T25C | 0.0306 |
| T23C T25A | 0.0129 |
| T23C T25G | 0.0076 |
| A24C | 0.025 |
| T23C A44G | 0.0605 |
| T23C A44C | 0.0323 |
| T23C A44T | 0.0534 |
| T23A A35G | 0.0122 |
| T23A A35T | 0.0125 |
| T23A A35C | 0.00609 |
| A24C G33T | 0.0129 |
| A24C G33A | 0.0216 |
| A24C G33C | 0.00418 |
| T23G G37C | 0.00547 |
| T23G G37T | 0.00959 |
| T23G G37A | 0.00471 |
| T23C A27G | 0.354 |

| Variant | fraction ligated |
| --- | --- |
| T23C A27C | 0.133 |
| T23C A27T | 0.595 |
| A24C A31C | 0.0126 |
| A24C A31G | 0.0441 |
| A24C A31T | 0.0211 |
| T23C | 0.318 |
| T23A | 0.215 |
| T23G | 0.8 |
| T23G T32C | 0.00942 |
| T23G T32A | 0.084 |
| T23G T32G | 0.0266 |
| T23G A44G | 0.764 |
| T23G A44T | 0.792 |
| T23G A44C | 0.693 |
| T23C A31C | 0.328 |
| T23C A31T | 0.517 |
| T23C A31G | 0.392 |
| T23A G28A | 0.178 |
| T23A G28T | 0.176 |
| T23A G28C | 0.132 |
| T23C G33T | 0.0728 |
| T23C G33C | 0.147 |
| T23C G33A | 0.304 |
| T23C G37A | 0.00595 |

| Variant | fraction ligated |
| --- | --- |
| T23C G37C | 0.00507 |
| T23C G37T | 0.0164 |
| A24C C26G | 0.032 |
| A24C C26T | 0.0975 |
| A24C C26A | 0.0482 |
| T23G T25A | 0.0923 |
| T23G T25G | 0.193 |
| T23G T25C | 0.153 |
| T23C A43G | 0.00398 |
| T23C A43C | 0.00429 |
| T23C A43T | 0.00662 |
| T23A G34A | 0.0227 |
| T23A G34T | 0.00436 |
| T23A G34C | 0.00115 |
| T23A A29T | 0.156 |
| T23A A29C | 0.15 |
| T23A A29G | 0.189 |
| A24C A44G | 0.00645 |
| A24C A44C | 0.00359 |
| A24C A44T | 0.0123 |
| A24C A30T | 0.0451 |
| A24C A30C | 0.034 |
| A24C A30G | 0.0241 |
| A24C A35T | 0.00376 |

| Variant | fraction ligated |
| --- | --- |
| A24C A35C | 0.00154 |
| A24C A35G | 0.00404 |
| T23G G34T | 0.00441 |
| T23G G34A | 0.0854 |
| T23G G34C | 0.00122 |
| T23G A35T | 0.031 |
| T23G A35G | 0.247 |
| T23G A35C | 0.0185 |
| T23A G33A | 0.178 |
| T23A G33T | 0.0493 |
| T23A G33C | 0.0701 |
| T23A G37C | 0.00499 |
| T23A G37T | 0.00942 |
| T23A G37A | 0.00757 |
| T23C T32G | 0.00399 |
| T23C T32A | 0.00196 |
| T23C T32C | 0.0041 |
| T23G A30T | 0.806 |
| T23G A30G | 0.803 |
| T23G A30C | 0.789 |
| T23G A29C | 0.824 |
| T23G A29G | 0.813 |
| T23G A29T | 0.803 |
